In this assay the target is mini-SaCas9-3 with four tandem repeats of SpyTag fused to its C-terminal (Streptococcus pyogenes). The assay can be described thus: cell-based or functional assay.

For the substance SpyCatcher:VPR, the expression of the enhanced blue fluorescent protein 2 (EBFP2) reporter gene compared to the negative control stood at 100 fold.

Source of the values: patent US11674128.
